Results on 1 protein are retold here after PMC5102385, “Structure of a Spumaretrovirus Gag Central Domain Reveals an Ancient Retroviral Capsid” (PLoS Pathogens, 2016).

Data set [1] concerns the molecule itself. Nature of the data set: AUC; multi-speed sedimentation equilibrium at varying protein concentration, 20 mM Tris-HCl pH 8, 150 mM NaCl, 0.5 mM TCEP, interference data, global fit with SEDPHAT; monomer to dimer.
Data set [2] concerns the molecule itself. The data set is described as above. The source holds these as a separate data set.

B1: PFV-Gag CtDCEN (domain or fragment)
chain: RTHGTFPMHQLGNVIKGIVDQEGVATAYTLGMMLSGQNYQLVSGIIRGYLPGQAVVTALQQRLDQEIDNQTRAETFIQHLNAVYEILGLNARGQSIR
notes: Gag of Prototype foamy virus (PFV), residues 381-477 (CtDCEN), amplified from plasmid pcziGag4, in pET22b (NdeI/XhoI); also called PFV-CtDCEN; source: E. coli Rosetta 2 (DE3), purified (Ni-NTA, SEC on Superdex 75)
Usually stoichiometry N stands for the number of molecules, sites or subunits per partner or assembly. As usually defined, the Kd is the equilibrium constant for the complex coming apart. Higher therefore signals a looser complex. Turning to B1, in data set [1], the Ka worked out at 1.1e+06 M⁻¹ and the “stoichiometry N” value came to 2. Also, in data set [2], binding was put at a Kd of 900 nM.
